Measured values: US20080096222

What was measured:
[1] = target: H3-GST with the mutation R2A
[2] = target: H3-GST with the mutation K4A

B1: myc-tagged human haspin (protein)
chain: AASLPGPGSRLFRTYGAADGRRQRRPGREAAQWFPPQDRRRFFNSSGSSDASIGDPSQSDDPDDPDDPDFPGSPVRRRRRCPGGRVPKDRPSLTVTPKRWKLRARPSLTVTPRRLGLRARPPQKCSTPCGPLRLPPFPSRDSGRLSPDLSVCGQPRDGDELGISASLFSSLASPCPGSPTPRDSVISIGTSACLVAASAVPSDLHLPEVSLDRASLPCSQEEATGGAKDTRMVHQTRASLRSVLFGLMNSGTPEDSEFRADGKNMRESCCKRKLVVGNGPEGPGLSSTGKRRATGQDSCQERGLQEAVRREHQEASVPKGRIVPRGTDRLERTRSSRKSKHQEATETSLLHSHRFKKGQKLGKDSFPTQDLTPLQNACFWTKTRASFSFHKKKIVTDVSEVCSIYTTATSLSGSLLSECSNRPVMNRTSGAPSSWHSSSMYLLSPLNTLSISNKKASDAEKVYGECSQKGPVPFSHCLPTEKLQRCEKIGEGVFGEVFQTIADHTPVAIKIIAIEGPDLVNGSHQKTFEEILPEIIISKELSLLSGEVCNRTEGFIGLNSVHCVQGSYPPLLLKAWDHYNSTKGSANDRPDFFKDDQLFIVLEFEFGGIDLEQMRTKLSSLATAKSILHQLTASLAVAEASLRFEHRDLHWGNVLLKKTSLKKLHYTLNGKSSTIPSCGLQVSIIDYTLSRLERDGIVVFCDVSMDEDLFTGDGDYQFDIYRLMKKENNNRWGEYHPYSNVLWLHYLTDKMLKQMTFKTKCNTPAMKQIKRKIQEFHRTMLNFSSATDLLCQHSLFK
B1 was tested, and the “phosphorylation of H3-GST by haspin (in vitro kinase assay)” value [1] was “substantially reduced phosphorylation of H3-GST by haspin” and the “phosphorylation of H3-GST by haspin (in vitro kinase assay)” value [2] was “substantially reduced phosphorylation of H3-GST by haspin”.
